The results in this text go back to publication PMC10467038 (Science translational medicine, 2023).

In series [1] the target is complement C1q (purified) (UniProt P02745 23-245; P02746 28-253; P02747 29-245). Nature of the series: ELISA.
Series [2] concerns the molecule itself. Nature of the series: negative staining electron microscopy.

Chain of complement C1q (purified) (P02745 23-245, chain 1 of 3): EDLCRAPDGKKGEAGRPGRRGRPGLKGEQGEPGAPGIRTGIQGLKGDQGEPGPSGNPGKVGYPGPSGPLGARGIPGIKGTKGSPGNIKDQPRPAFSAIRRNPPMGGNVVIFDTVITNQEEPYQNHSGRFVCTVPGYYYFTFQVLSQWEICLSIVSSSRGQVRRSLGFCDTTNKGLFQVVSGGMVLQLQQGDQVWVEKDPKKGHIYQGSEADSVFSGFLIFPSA
Chain of complement C1q (purified) (P02746 28-253, chain 2 of 3): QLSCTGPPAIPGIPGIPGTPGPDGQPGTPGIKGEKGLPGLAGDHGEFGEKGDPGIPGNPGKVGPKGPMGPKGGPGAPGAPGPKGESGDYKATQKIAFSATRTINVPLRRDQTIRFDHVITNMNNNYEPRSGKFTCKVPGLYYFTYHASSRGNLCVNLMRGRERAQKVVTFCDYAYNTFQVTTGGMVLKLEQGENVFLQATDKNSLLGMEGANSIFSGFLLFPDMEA
Chain of complement C1q (purified) (P02747 29-245, chain 3 of 3): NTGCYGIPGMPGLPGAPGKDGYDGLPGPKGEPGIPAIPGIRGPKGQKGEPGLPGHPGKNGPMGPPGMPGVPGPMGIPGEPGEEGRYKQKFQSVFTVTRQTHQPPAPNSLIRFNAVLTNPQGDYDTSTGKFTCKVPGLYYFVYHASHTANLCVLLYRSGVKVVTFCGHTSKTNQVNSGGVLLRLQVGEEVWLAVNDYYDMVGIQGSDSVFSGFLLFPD

B1: Nptxr/Nptx2 coexpressed on a stable doxycycline-inducible CHO cell line (complex)
chain 1: MKFLAVLLAAGMLAFLGAVICIIASVPLAASPARALPGGADNASVASGAAASPGPQRSLSALHGAGGSAGPPALPGAPAASAHPLPPGPLFSRFLCTPLAAACPSGAQQGDAAGAAPGEREELLLLQSTAEQLRQTALQQEARIRADQDTIRELTGKLGRCESGLPRGLQGAGPRRDTMADGPWDSPALILELEDAVRALRDRIDRLEQELPARVNLSAAPAPVSAVPTGLHSKMDQLEGQLLAQVLALEKERVALSHSSRRQRQEVEKELDVLQGRVAELEHGSSAYSPPDAFKISIPIRNNYMYARVRKALPELYAFTACMWLRSRSSGTGQGTPFSYSVPGQANEIVLLEAGHEPMELLINDKVAQLPLSLKDNGWHHICIAWTTRDGLWSAYQDGELQGSGENLAAWHPIKPHGILILGQEQDTLGGRFDATQAFVGDIAQFNLWDHALTPAQVLGIANCTAPLLGNVLPWEDKLVEAFGGATKAAFDVCKGRAKA
chain 2: GAQDSPAPGSRFVCTALPPEAVHAGCPLPAMPMQGGAQSPEEELRAAVLQLRETVVQQKETLGAQREAIRELTGKLARCEGLAGGKARGAGATGKDTMGDLPRDPGHVVEQLSRSLQTLKDRLESLEHQLRANVSNAGLPGDFREVLQQRLGELERQLLRKVAELEDEKSLLHNETSAHRQKTESTLNALLQRVTELERGNSAFKSPDAFKVSLPLRTNYLYGKIKKTLPELYAFTICLWLRSSASPGIGTPFSYAVPGQANEIVLIEWGNNPIELLINDKVAQLPLFVSDGKWHHICVTWTTRDGMWEAFQDGEKLGTGENLAPWHPIKPGGVLILGQEQDTVGGRFDATQAFVGELSQFNIWDRVLRAQEIVNIANCSTNMPGNIIPWVDNNVDVFGGASKWPVETCEERLLDL
In series [1], B1 returned a Kd of about 2 nM.

B2: neuronal pentraxin 2 (purified, recombinant) (natural protein, UniProt P47972 16-431, looked up)
chain: B1 chain 2
For B2, the “stoichiometry N” value in series [2] worked out at 6.
